The record followed here is patent publication US20230414780A1 (VECT HORUS, published 2023).

Residue numbers refer to the chain shown, from its start.

The chains are these.
B1: B8^h1 (VHH)
VHH: EVQLVESGGGVVQPGGSLRLSCAASGEIFSINFMRWYRQAPGKGLEWVAGFTRDGSTNYPDSVKGRFTISRDNAKNTVYLQMNSLRPEDTAVYYCYMLDTWGQGTQVTVSS
B2: C5^h18 (VHH)
VHH: EVQLVESGGGVVQPGGSLKLSCVASGTDFSINFIRWYRQAPGKGLEFVAGFTATGNTNYADSVKGRFTISRDNAKNTLYLQMNSLRPEDTAVYYCYMLDKWGQGTQVTVSS
B3: VHH A1 (C5^V1) (VHH)
VHH: B2 VHH with T27A, G44Q, L45R, V63M, A74T, T77A, L78V, M82I, N83D, R86K
B4: C5^h19 (VHH)
VHH: B2 VHH with K19R, V23A, G44Q, L45R
B5: VHH A13 (C5^V13) (VHH)
VHH: B2 VHH with G44Q, L45R, T52S, V63M, A74T, T77A, L78V, M82I, N83D, R86K
B6: B8h1-siSOD1m (VHH)
VHH: B1 VHH
modifications: chain 1 pos 125: Gln of the LQR Q-tag carrying the transglutaminase-installed azido linker clicked to the 3' end of the sense strand of the chemically modified siSOD1m duplex (SEQ ID NOs 465/466), written Q
notes: Member of the group m173
B7: B8-siSOD1m (VHH)
VHH: B1 VHH with G44Q, L45R, V63A, M82I, N83D, R86K
modifications: conjugated to the siSOD1m siRNA duplex through a linker; site and tag not given for this conjugate ; VHH conjugated through a C-terminal tag and a stable click linker to the 3' end of the sense strand of the siSOD1m siRNA duplex (SEQ ID NO 465/466). The letters cannot carry this.
notes: Member of the group m173; not shown: C-terminal tag/linker that carries the siRNA
B8: C5-ΔHis-siSOD1m (VHH)
VHH: B2 VHH with G44Q, L45R, V63M, A74T, T77A, L78V, M82I, N83D, R86K
modifications: conjugated to the siSOD1m siRNA duplex through a linker; site and tag not given for this conjugate ; Conjugated at a C-terminal tag (not given) through a linker to the chemically modified siSOD1m duplex (SEQ ID NOs 465/466).
notes: Member of the group m173; also called VHH-deltaHis-siSOD1m wherein VHH is C5; not shown: The C-terminal conjugation tag of the 'ΔHis' form, which the text never defines
B9: C5-Thiol-Mal-siSOD1m (VHH)
VHH: B2 VHH with G44Q, L45R, V63M, A74T, T77A, L78V, M82I, N83D, R86K
modifications: chain 1 pos 117: free Cys of the tag coupled by thiol-maleimide chemistry to the maleimide-functionalised siSOD1m duplex (SEQ ID NOs 465/466), written C
notes: Member of the group m173; also called VHH-thiol-Mal-siSOD1m wherein VHH is C5
B10: C5-siSOD1m (VHH)
VHH: B2 VHH with G44Q, L45R, V63M, A74T, T77A, L78V, M82I, N83D, R86K
modifications: chain 1 pos 125: Gln of the LQR Q-tag carrying the transglutaminase-installed azido linker clicked to the 3' end of the sense strand of the chemically modified siSOD1m duplex (SEQ ID NOs 465/466, no 5'VP), written Q
notes: Member of the group m173; siRNA without 5'VP, so not the same as m166
B11: C5V1-siSOD1m (VHH)
VHH: B2 VHH with T27A, G44Q, L45R, V63M, A74T, T77A, L78V, M82I, N83D, R86K
modifications: conjugated to the siSOD1m siRNA duplex through a linker; site and tag not given for this conjugate ; VHH conjugated through a C-terminal tag and a stable click linker to the 3' end of the sense strand of the siSOD1m siRNA duplex (SEQ ID NO 465/466). The letters cannot carry this.
notes: as for B7
B12: C5V7-siSOD1m (VHH)
VHH: B2 VHH with G44Q, L45R, V63M, A74T, T77A, L78V, M82I, N83D, R86K, L98A
modifications: conjugated to the siSOD1m siRNA duplex through a linker; site and tag not given for this conjugate ; VHH conjugated through a C-terminal tag and a stable click linker to the 3' end of the sense strand of the siSOD1m siRNA duplex (SEQ ID NO 465/466). The letters cannot carry this.
notes: as for B7
B13: C5h18-siSOD1m (VHH)
VHH: B2 VHH
modifications: conjugated to the siSOD1m siRNA duplex through a linker; site and tag not given for this conjugate ; VHH conjugated through a C-terminal tag and a stable click linker to the 3' end of the sense strand of the siSOD1m siRNA duplex (SEQ ID NO 465/466). The letters cannot carry this.
notes: as for B7
B14: C5V13-siSOD1m (VHH)
VHH: B2 VHH with G44Q, L45R, T52S, V63M, A74T, T77A, L78V, M82I, N83D, R86K
modifications: conjugated to the siSOD1m siRNA duplex through a linker; site and tag not given for this conjugate ; VHH conjugated through a C-terminal tag and a stable click linker to the 3' end of the sense strand of the siSOD1m siRNA duplex (SEQ ID NO 465/466). The letters cannot carry this.
notes: as for B7
B15: C5h19-siSOD1m (VHH)
VHH: B2 VHH with K19R, V23A, G44Q, L45R
modifications: conjugated to the siSOD1m siRNA duplex through a linker; site and tag not given for this conjugate ; VHH conjugated through a C-terminal tag and a stable click linker to the 3' end of the sense strand of the siSOD1m siRNA duplex (SEQ ID NO 465/466). The letters cannot carry this.
notes: as for B7
B16: VHH B-siGFPst1 bioconjugate (VHH)
VHH: B1 VHH with G44Q, L45R, V63A, M82I, N83D, R86K
modifications: siGFPst1 siRNA linked to the Gln of the C-terminal Q-tag
notes: not shown: C-terminal tag with His tag and Q-tag

T6 sequence (P02786 89-760): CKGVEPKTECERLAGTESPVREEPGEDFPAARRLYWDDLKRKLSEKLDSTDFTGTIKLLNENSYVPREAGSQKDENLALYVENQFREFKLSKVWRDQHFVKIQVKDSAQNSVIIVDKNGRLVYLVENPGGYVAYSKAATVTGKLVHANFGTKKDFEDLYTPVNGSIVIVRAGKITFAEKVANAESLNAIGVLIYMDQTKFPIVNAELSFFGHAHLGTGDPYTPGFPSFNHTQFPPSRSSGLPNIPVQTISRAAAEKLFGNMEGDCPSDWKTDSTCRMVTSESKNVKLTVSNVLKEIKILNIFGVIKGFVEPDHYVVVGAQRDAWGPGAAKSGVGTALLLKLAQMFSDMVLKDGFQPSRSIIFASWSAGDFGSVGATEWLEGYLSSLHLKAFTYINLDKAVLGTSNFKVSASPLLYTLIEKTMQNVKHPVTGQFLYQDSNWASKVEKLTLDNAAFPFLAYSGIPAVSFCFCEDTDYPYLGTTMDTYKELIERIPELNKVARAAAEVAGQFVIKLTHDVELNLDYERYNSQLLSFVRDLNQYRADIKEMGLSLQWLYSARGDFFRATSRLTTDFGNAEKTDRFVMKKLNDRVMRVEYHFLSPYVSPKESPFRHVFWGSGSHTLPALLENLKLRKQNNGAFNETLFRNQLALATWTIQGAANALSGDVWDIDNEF
T3 sequence (P02786 whole entry, the tested form may be a part): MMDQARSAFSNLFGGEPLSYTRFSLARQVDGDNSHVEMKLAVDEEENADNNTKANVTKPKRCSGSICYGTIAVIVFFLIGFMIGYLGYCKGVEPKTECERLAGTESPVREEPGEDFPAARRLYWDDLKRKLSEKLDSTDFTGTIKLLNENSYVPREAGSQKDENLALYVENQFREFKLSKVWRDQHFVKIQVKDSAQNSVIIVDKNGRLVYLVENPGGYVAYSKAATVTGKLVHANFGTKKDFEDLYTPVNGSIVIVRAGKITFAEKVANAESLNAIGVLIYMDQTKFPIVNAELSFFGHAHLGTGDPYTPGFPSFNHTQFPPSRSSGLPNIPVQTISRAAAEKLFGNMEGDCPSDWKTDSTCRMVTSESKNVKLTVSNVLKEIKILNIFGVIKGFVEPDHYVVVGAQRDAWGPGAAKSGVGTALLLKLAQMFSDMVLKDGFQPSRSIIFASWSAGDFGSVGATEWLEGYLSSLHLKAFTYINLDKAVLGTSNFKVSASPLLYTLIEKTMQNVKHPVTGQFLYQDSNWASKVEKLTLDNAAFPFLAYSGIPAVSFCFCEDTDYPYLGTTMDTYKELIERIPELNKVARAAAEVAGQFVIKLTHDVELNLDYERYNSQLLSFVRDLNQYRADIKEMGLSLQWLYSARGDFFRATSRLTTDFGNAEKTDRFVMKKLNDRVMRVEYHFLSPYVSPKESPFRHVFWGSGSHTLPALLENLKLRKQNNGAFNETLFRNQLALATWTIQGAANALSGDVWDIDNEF

The target of one experiment is T1, murine TfR expressed by murine neuroblastoma Neuro-2a cells (mouse, UniProt Q62351 1-763).
T1 construct: whole, on cells; also called mTfR (N2a cells)
T1 sequence (Q62351 whole entry): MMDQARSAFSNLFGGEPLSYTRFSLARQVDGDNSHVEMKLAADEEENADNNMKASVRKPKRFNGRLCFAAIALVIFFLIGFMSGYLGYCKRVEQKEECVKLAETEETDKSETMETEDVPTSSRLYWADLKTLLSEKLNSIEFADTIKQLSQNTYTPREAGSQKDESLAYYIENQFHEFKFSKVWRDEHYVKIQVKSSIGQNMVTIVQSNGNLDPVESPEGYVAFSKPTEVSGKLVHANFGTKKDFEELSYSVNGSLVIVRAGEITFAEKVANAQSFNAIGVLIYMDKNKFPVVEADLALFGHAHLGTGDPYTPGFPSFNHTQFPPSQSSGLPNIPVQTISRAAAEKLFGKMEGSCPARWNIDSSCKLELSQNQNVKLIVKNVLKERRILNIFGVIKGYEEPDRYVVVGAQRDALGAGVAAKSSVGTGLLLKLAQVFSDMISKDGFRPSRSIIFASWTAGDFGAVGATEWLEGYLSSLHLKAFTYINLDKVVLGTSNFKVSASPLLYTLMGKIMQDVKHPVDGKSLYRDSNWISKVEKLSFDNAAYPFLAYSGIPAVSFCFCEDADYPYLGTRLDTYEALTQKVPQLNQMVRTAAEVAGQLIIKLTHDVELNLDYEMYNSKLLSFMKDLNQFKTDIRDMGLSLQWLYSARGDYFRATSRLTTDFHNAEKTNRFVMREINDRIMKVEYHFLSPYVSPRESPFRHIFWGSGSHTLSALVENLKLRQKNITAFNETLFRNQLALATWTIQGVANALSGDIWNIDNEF
Description: competition with the fluorescent reference VHH on Neuro-2a cells as in FIG. 25; Ki/app on mTfR, free VHH. As to the method:
(§1) The binding of VHH-Oligo and VHH-hFc-Oligo conjugates to mTfR was evaluated using a competition assay on living cells expressing the receptor of interest, namely murine neuroblastoma Neuro-2a cells (N2a). N2a cells were grown in Dulbecco's Modified Eagle Medium (DMEM) GlutaMAX supplemented with 10% v/v FBS in 5% CO₂ at 37° C. Cells were seeded two days before experiments in 96-well plates at a density of 50.000 cells/well. […] Resuspended cells were transferred in a 96-deepwell plate (V-bottom) containing 1% fetal bovine serum (FBS)/0.02% sodium azide in phosphate-buffered saline (PBS) and then centrifuged for 5 min at 2000 rpm at 4° C. After removing the supernatant, 5 mM EDTA in D-PBS and 4% paraformaldehyde (PFA) (v/v 1:1) were added into wells to fix cells for 15 min at room temperature. PFA was removed by centrifugation (5 min, 3000 rpm, 4° C.) and cells were resuspended with 5 mM EDTA in D-PBS. Then the cellular A680-associated fluorescence signal was quantified using an Attune™ NxT flow cytometer (Thermo Fisher Scientific) equipped with Attune™ NxT v3.1.2. Experimental data (experimental triplicates) were fitted with GraphPad Prism® software using a nonlinear fit to determine the apparent Ki inhibition constants.
As for B1, the Ki stood at 43 nM.

B2 showed a Ki of 1480 nM.

For the molecule B3, the Ki is 834 nM.

For B4, the Ki was found to be 7600 nM.

In the case of B5, the Ki stood at 1320 nM.

The target of a further experiment is T2, mouse transferrin receptor (mTfR) fused to EGFP, on CHO cells (mouse, UniProt Q62351 1-763).
T2 construct: whole, on cells; also called mouse TfR; CHO-mTfR-EGFP; not shown: EGFP
T2 sequence (Q62351 whole entry, the tested form may be a part): as the sequence (Q62351 whole entry) above
Description: apparent Kd, flow cytometry, CHO cells. Summed up:
(§2)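 CHO cells expressing TfR-EGFP fusions, blocked in PBS/BSA 2%, then incubated with increasing VHH concentrations for 1 hr at 4° C. Bound VHH detected via anti-6His antibody and Alexa647 secondary, cells PFA-fixed, read by flow cytometry. Apparent Kd from nonlinear fit.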
With B1, the Kd stood at 2.8 nM.

Turning to B2, the Kd was 834 nM.

In the case of B3, the Kd was 259 nM.

With B4, the Kd is 1030 nM.

B5: the Kd worked out at 187 nM.

Another experiment addresses T3, human transferrin receptor (hTfR) fused to EGFP, on CHO cells (human, UniProt P02786 1-760).
T3 construct: whole, on cells; also called human TfR; CHO-hTfR-EGFP; not shown: EGFP from pEGFP-C1 vector, fused to the N-terminal (intracellular) end of hTfR
Kind of experiment: apparent Kd, flow cytometry, CHO cells. Summed up:
as §2
With B1, the Kd is 4.1 nM.

As to B2, the Kd turned out to be 11 nM.

For the molecule B3, the Kd worked out at 3.2 nM.

B4: the Kd was found to be 5.4 nM.

For B5, the Kd is 3.5 nM.

For the next experiment, the target named is T4, rhesus monkey transferrin receptor (rhTfR) fused to EGFP, on CHO cells (rhesus monkey).
T4 construct: whole, on cells; also called rhesus monkey TfR
Description: apparent Kd, flow cytometry, CHO cells. The essentials:
as §2
In the case of B1, the Kd was 1.9 nM.

For the molecule B2, the Kd turned out to be 957 nM.

As for B3, the Kd amounted to 13 nM.

Turning to B4, the Kd was found to be 521 nM.

For the molecule B5, the Kd was 28 nM.

The target in a further experiment is T1, murine TfR expressed by murine …. Kind of experiment: competition with the fluorescent reference VHH on Neuro-2a cells as in FIG. 25; Ki/app on mTfR. As to the method: as §1
With B6, the Ki came to 76.1 nM.

Consider B7, for which the Ki amounted to 48.8 nM.

B8 came in with a Ki of 137 nM.

For B9, the Ki is 164 nM.

B10 came in with a Ki of 161 nM.

Turning to B11, the Ki is 224 nM.

Turning to B12, the Ki turned out to be 10100 nM.

B13 registered a Ki of 1070 nM.

For B14, the Ki was determined as 512 nM.

In turn, B15 returned a Ki of 2630 nM.

The target in the next experiment is T3, human transferrin receptor (hTfR) fused …. Kind of experiment: flow cytometry on CHO-hTfR-EGFP cells, 1 hr at 4 C, anti-6His + Alexa647 anti-mouse; ratio to background fluorescence. As to the method:
FIGS. 15A-15H: In vitro gene silencing activity of VHH-siGFPst1 bioconjugates. […] CHO-hTfR-EGFP cells were incubated 1 hr at 4° C. with various concentrations of the indicated compounds. Detection of VHHs was performed using a primary mouse anti-6His (1/1000) and an Alexa647-conjugated anti-mouse secondary antibody (1/400). Measurements of cell-surface signal associated to VHH were performed using flow cytometry. The results are expressed as the ratio of Alexa647-associated fluorescence intensity of test compounds to that of background fluorescence. […] The total fluorescence associated to the EGFP protein was then quantified using flow cytometry and rationalized to that of untreated (control) cells (set at 100%) *** p≤0.001. […] The total fluorescence associated with the EGFP protein was then quantified using flow cytometry and rationalized to that of untreated (control) cells (set at 100%). […] CHO-hTfR-EGFP cells were incubated with the indicated compounds at 1 μM during 120 hrs at 37° C. Data were processed and analyzed as described in (B). *** p≤0.001 vs. untreated cells. […] The total fluorescence associated with the EGFP protein was then quantified using flow cytometry and rationalized to that of untreated (control) cells (set at 100%).
Background: A flow cytometer gives signals particle by particle.
What is called EC50 (read off the curve) is the concentration that produces a half-maximal response. Turning to B16, the “EC50 (read off the curve)” value was about 3 nM.

For a further experiment, the target named is T5, mouse TfR ectodomain fused to a mouse IgG1 Fc fragment (mouse, UniProt Q62351 89-763).
T5 construct: extracellular domain; not shown: mouse IgG1 Fc fragment
T5 sequence (Q62351 89-763): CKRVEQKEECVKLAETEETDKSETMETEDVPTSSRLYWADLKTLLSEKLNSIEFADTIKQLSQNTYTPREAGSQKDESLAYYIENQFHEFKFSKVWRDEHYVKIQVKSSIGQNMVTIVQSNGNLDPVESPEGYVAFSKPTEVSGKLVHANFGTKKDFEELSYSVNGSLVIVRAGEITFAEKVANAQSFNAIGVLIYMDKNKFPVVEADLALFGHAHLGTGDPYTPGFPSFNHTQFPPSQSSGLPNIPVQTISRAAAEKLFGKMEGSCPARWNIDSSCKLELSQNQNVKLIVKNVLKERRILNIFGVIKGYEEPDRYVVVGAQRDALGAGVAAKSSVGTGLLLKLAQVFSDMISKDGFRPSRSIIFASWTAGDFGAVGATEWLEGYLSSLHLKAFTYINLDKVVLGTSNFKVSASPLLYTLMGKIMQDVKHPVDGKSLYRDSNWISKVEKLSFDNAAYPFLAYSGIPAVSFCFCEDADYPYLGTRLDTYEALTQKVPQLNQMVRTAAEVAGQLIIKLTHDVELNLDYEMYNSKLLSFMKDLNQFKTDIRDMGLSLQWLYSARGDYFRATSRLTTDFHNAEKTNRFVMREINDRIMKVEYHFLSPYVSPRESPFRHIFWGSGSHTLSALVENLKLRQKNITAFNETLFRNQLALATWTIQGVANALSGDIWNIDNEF
Kind of experiment: SPR, at equilibrium. Summed up: (§3)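 TfR–mouse Fc fusions, produced in-house, captured on HC 1500M or CM5 chips either directly or via immobilized anti-mouse IgG. VHHs injected in single-cycle or multiple-cycle kinetic mode on Biacore T200.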
(In general: Surface plasmon resonance follows binding to a sensor surface in real time, without labels.)
For B2, the Kd is 300 nM.

In the case of B3, the Kd came to 228 nM.

As to B4, the Kd amounted to 2750 nM.

In turn, B5 yielded a Kd of 113 nM.

A further experiment addresses T6, human TfR ectodomain fused to a mouse IgG1 Fc fragment (human, UniProt P02786 89-760).
T6 construct: extracellular domain; ectodomain fused to the N-terminal end of the Fc, made in-house; not shown: mouse IgG1 Fc fragment
Kind of experiment: SPR, at equilibrium. Summed up: as §3
The molecule B2 gave a Kd of 27.3 nM.

B4 returned a Kd of 13.2 nM.

The target of another experiment is T5, mouse TfR ectodomain fused to a mouse …. Description: SPR, kinetic. The essentials: as §3
The term koff denotes the rate constant with which the complex falls apart. By kon is commonly meant the second-order rate constant of association. Take B2: the Kd came out at 336 nM, the koff amounted to 0.235 s⁻¹ and the kon was 816000 M⁻¹ s⁻¹.

For the molecule B3, the Kd came to 244 nM, the koff came out at 0.12 s⁻¹ and the kon was determined as 546000 M⁻¹ s⁻¹.

B4 returned a Kd of 643 nM, a koff of 0.00825 s⁻¹ and a kon of 12800 M⁻¹ s⁻¹.

The molecule B5 showed a Kd of 78.9 nM, a koff of 0.0182 s⁻¹ and a kon of 231000 M⁻¹ s⁻¹.

For another experiment, the target named is T6, human TfR ectodomain fused to a mouse …. Description: SPR, kinetic. The essentials: as §3
For the molecule B1, the Kd was determined as 0.212 nM, the koff is 9.49e-05 s⁻¹ and the kon stood at 444000 M⁻¹ s⁻¹.

Molecule B2 gave a Kd of 30.9 nM, a koff of 0.013 s⁻¹ and a kon of 462000 M⁻¹ s⁻¹.

Take B3: the Kd worked out at 0.876 nM, the koff was determined as 0.000487 s⁻¹ and the kon was found to be 555000 M⁻¹ s⁻¹.

B4 registered a Kd of 16.3 nM, a koff of 0.00904 s⁻¹ and a kon of 624000 M⁻¹ s⁻¹.

B5 registered a Kd of 0.357 nM, a koff of 0.000392 s⁻¹ and a kon of 1.14e+06 M⁻¹ s⁻¹.
